The values that follow come from patent US20210040193A1 (BEIJING HANMI PHARMACEUTICAL, published 2021).

The target of experiment [1] is T1, Recombinant human PD-1 (Beijing Sino Biological Inc., Catalog No. 10377-H08H) (human, UniProt Q15116 25-167).
T1 construct: Bought recombinant protein
As to the kind of experiment: ELISA, human PD-1 coated on the plate, anti-human IgG-HRP detection.

Experiment [2] concerns the target T1, Recombinant human PD-1 (Beijing Sino …). As to the kind of experiment: ELISA, human PD-1 coated on the plate, anti-human IgG-HRP detection; control. For orientation: An ELISA detects its analyte on a solid surface through an enzyme-linked reagent.

T1 sequence (Q15116 25-167 limits assumed): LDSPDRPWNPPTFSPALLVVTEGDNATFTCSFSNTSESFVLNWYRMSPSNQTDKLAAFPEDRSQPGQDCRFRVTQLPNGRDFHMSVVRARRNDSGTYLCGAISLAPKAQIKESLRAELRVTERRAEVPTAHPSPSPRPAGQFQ

B1: anti-PD-1 (Pembro)/VEGF (G631) heterodimeric antibody (bispecific antibody, human IgG1, kappa, N297A)
heavy 1: QVQLVQSGVEVKKPGASVKVSCKASGYTFTNYYMYWVRQAPGQGLEWMGGINPSNGGTNFNEKFKNRVTLTTDSSTTTAYMELKSLQFDDTAVYYCARRDYRFDMGFDYWGQGTTVTVSSASTKGPSVFPLAPSSKSTSGGTAALGCLVKDYFPEPVTVSWNSGALTSGVHTFPAVLQSSGLYSLSSVVTVPSSSLGTQTYICNVNHKPSNTKVDKKVEPKSCDKTHTCPPCPAPELLGGPSVFLFPPKPKDTLMISRTPEVTCVVVDVSHEDPEVKFNWYVDGVEVHNAKTKPREEQYASTYRVVSVLTVLHQDWLNGKEYKCKVSNKALPAPIEKTISKAKGQPREPQVYTLPPSRDELTKNQVSLLCLVKGFYPSDIAVEWESNGQPENNYKTTPPVLRSDGSFFLYSKLTVDKSRWQQGNVFSCSVMHEALHNHYTQKSLSLSPGK
light 1: EIVLTQSPATLSLSPGERATLSCRASKGVSTSGYSYLHWYQQKPGQAPRLLIYLASYLESGVPARFSGSGSGTDFTLTISSLEPEDFAVYYCQHSRDLPLTFGGGTKVEIKRTVAAPSVFIFPPSDEQLKSGTASVVCLLNNFYPREAKVQWKVDNALQSGNSQESVTEQDSKDSTYSLSSTLTLSKADYEKHKVYACEVTHQGLSSPVTKSFNRGEC
heavy 2: EVQLVESGGGLVQPGGSLRLSCAASGFTISDYWIHWVRQAPGKGLEWVAGITPAGGYTYYADSVKGRFTISADTSKNTAYLQMNSLRAEDTAVYYCARFVFFLPYAMDYWGQGTLVTVSSASTKGPSVFPLAPSSKSTSGGTAALGCLVKDYFPEPVTVSWNSGALTSGVHTFPAVLQSSGLYSLSSVVTVPSSSLGTQTYICNVNHKPSNTKVDKKVEPKSCDKTHTCPPCPAPELLGGPSVFLFPPKPKDTLMISRTPEVTCVVVDVSHEDPEVKFNWYVDGVEVHNAKTKPREEQYASTYRVVSVLTVLHQDWLNGKEYKCKVSNKALPAPIEKTISKAKGQPREPQVYTEPPSRDELTKNQVSLTCLVKGFYPSDIAVEWESNGQPENNYKTTPPVLDSDGSFFLLSVLTVDKSRWQQGNVFSCSVMHEALHNHYTQKSLSLSPGK
light 2: not shown
notes: Heterodimer of two half antibodies; it is not spelled out for this molecule; also called anti-PD-1 (Pembro)/VEGF (G631) heterodimer antibody
Consider B1, for which the binding result in experiment [1] is given as “binds”.

B2: anti-PD-1 (BJHM)/VEGF (G631) heterodimeric antibody (bispecific antibody, human IgG1, kappa, N297A)
heavy 1: EVNLVESGGGLVQPGGSLRLSCAASGFTFSSYGMSWVRQAPGKGLEWVASISGGGRYTYYPDSMKGRFTISRDNSKNNLYLQMNSLRAEDTAVYYCVYEYFYTMDYWGQGTLVTVSSASTKGPSVFPLAPSSKSTSGGTAALGCLVKDYFPEPVTVSWNSGALTSGVHTFPAVLQSSGLYSLSSVVTVPSSSLGTQTYICNVNHKPSNTKVDKKVEPKSCDKTHTCPPCPAPELLGGPSVFLFPPKPKDTLMISRTPEVTCVVVDVSHEDPEVKFNWYVDGVEVHNAKTKPREEQYASTYRVVSVLTVLHQDWLNGKEYKCKVSNKALPAPIEKTISKAKGQPREPQVYTLPPSRDELTKNQVSLLCLVKGFYPSDIAVEWESNGQPENNYKTTPPVLRSDGSFFLYSKLTVDKSRWQQGNVFSCSVMHEALHNHYTQKSLSLSPGK
light 1: DIVLTQSPATLSLSPGERATLSCRASQSISNNLHWYQQKPGQAPRLLIRFASQSISGIPARFSGSGSGTDFTLTISSLEPEDFAVYFCQQSDNWPLTFGGGTKVEIKRTVAAPSVFIFPPSDEQLKSGTASVVCLLNNFYPREAKVQWKVDNALQSGNSQESVTEQDSKDSTYSLSSTLTLSKADYEKHKVYACEVTHQGLSSPVTKSFNRGEC
heavy 2: B1 heavy 2
light 2: not shown
Consider B2, for which the binding result in experiment [1] is “binds”.

B3: anti PD-1(BJHM)/VEGF(Bevaci) heterodimeric antibody (bispecific antibody, human IgG1, kappa, N297A)
heavy 1: B2 heavy 1
light 1: B2 light 1
heavy 2: EVQLVESGGGLVQPGGSLRLSCAASGYTFTNYGMNWVRQAPGKGLEWVGWINTYTGEPTYAADFKRRFTFSLDTSKSTAYLQMNSLRAEDTAVYYCAKYPHYYGSSHWYFDVWGQGTLVTVSSASTKGPSVFPLAPSSKSTSGGTAALGCLVKDYFPEPVTVSWNSGALTSGVHTFPAVLQSSGLYSLSSVVTVPSSSLGTQTYICNVNHKPSNTKVDKKVEPKSCDKTHTCPPCPAPELLGGPSVFLFPPKPKDTLMISRTPEVTCVVVDVSHEDPEVKFNWYVDGVEVHNAKTKPREEQYASTYRVVSVLTVLHQDWLNGKEYKCKVSNKALPAPIEKTISKAKGQPREPQVYTEPPSRDELTKNQVSLTCLVKGFYPSDIAVEWESNGQPENNYKTTPPVLDSDGSFFLLSVLTVDKSRWQQGNVFSCSVMHEALHNHYTQKSLSLSPGK
light 2: not shown
For B3, the binding result in experiment [1] is recorded as “binds”.

B4: PD-1 (BJHM) monoclonal antibody (antibody, V domains shown)
VH: EVNLVESGGGLVQPGGSLRLSCAASGFTFSSYGMSWVRQAPGKGLEWVASISGGGRYTYYPDSMKGRFTISRDNSKNNLYLQMNSLRAEDTAVYYCVYEYFYTMDYWGQGTLVTVSS
VL: DIVLTQSPATLSLSPGERATLSCRASQSISNNLHWYQQKPGQAPRLLIRFASQSISGIPARFSGSGSGTDFTLTISSLEPEDFAVYFCQQSDNWPLTFGGGTKVEIK
notes: Control monoclonal antibody; also called anti-human PD-1 antibody PD-1(BJHM)
Take B4: the binding result in experiment [2] is reported as “binds”.
